# Source: patent EP4644419A1 (Hangzhou Zhongmeihuadong Pharmaceutical Co., Ltd., dated 2025)
# Numbering of substitutions follows the chain as printed.
# T1: human CD112R antigen protein huCD112R-His (Acro Biosysterm, PVG-H52H4) (human, UniProt Q6DKI7 41-171)
# T1 construct: purchased; also called human antigen protein; not shown: His tag
# T1 sequence (looked up): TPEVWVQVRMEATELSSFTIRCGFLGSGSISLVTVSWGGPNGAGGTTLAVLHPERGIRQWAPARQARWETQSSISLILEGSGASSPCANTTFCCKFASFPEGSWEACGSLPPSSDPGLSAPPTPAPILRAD
# T2: monkey antigen protein (monkey CD112R, Uniprot ID: A0A2K5WVV8) (monkey, UniProt A0A2K5WVV8 41-171)
# T2 sequence: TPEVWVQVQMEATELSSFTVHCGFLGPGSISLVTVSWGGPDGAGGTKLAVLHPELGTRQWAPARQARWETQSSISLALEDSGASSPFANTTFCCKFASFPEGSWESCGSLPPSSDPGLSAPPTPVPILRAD
# B1: C115 (antibody, human IgG1, kappa, V domains shown)
# VH: EVQLQQSGAELVKPGASVKLSCTASGFNIEDTYIHWVKRRPEQGLEWIGGIDPAIGNTLYASKFQDMATITADTSSSTAYMQLSSLTSGDTAVYYCARERVYSNTLYYAMDYWGQGTSVTVSS
# VL: DIVLTQSPASLVVSLGQRATISCRASKSVSISGYSYMHWYQQKPGQPPKLLIYLASNLESGVPARFSGSGSGTDFTLNIHPVEAEDAATYYCQHSRELPPTFGGGTNLEIKR
# B2: C120 (antibody, human IgG1, kappa, V domains shown)
# VH: EVQLQQSGPEVVKPGASVKISCKASGNTLTDYFINWVKQSHGKNLEWIGDINPDNGAGNYNQKFKGKATLTVDKSSGTAFMGLRSLTSEDSAVYYCATLYFDYWGQGTTLTVSS
# VL: DIVMTQSPSSLSVSTGEKVTMSCRSSQSLLNSGNQKNYLAWYQQKPGQPPKLLIYGASTRESGVPDRFTGSGSGTDFTLTISSVQAEDLAIYYCQNAHTSPYTFGGGTRLEIKR
# B3: C101 (antibody, human IgG1, kappa, V domains shown)
# VH: EVQLQQSGPELVKPGSSVKISCEASGFTFADYNVDWVKQSHGKSLEWIGAINPNDGGTSYNQKFEGKATLTVDKSSTTAYMELRSLTSEDSAVYYCARWVNNDWYFDVWGTGTTVTVSS
# VL: DIVMTQSQKFMSTSVGDRVSITCKASQNVRSAVDWYQQKPGQSPKTLIHSASNRHTGVPDRFTGSGSGTDFTLTISNIQSEDLADYFCLQHWNYPYTFGGGTKLEVKR
# B4: C28 (antibody, human IgG1, kappa, V domains shown)
# VH: QIQLQQSGPELVKPGPSVKISCKASGYTFTDYYINWVKQRPGQGLEWIGWIYPGSGYTKYNEKLKGRATLTVDTSSSTAYMQLSSLTSEDSAVYFCARDSFYAMDYWGQGTSVTVSS
# VL: DIVMTQSQKFMSTTVGDRVSITCKASQNVGTAVAWYQQKPGQSPKLLIYSASNRYTGVPDRFTGSGSGTDFTLTITNMQSEDLADYFCLQYSSYLTFGAGTKLELKR
# B5: C31 (antibody, human IgG1, kappa, V domains shown)
# VH: B4 VH with P16A, N35A, P53L, Y57H, K59M, K63N, L64F, R67K
# VL: B4 VL with T76S, L89Q, S93T
# B6: C36 (antibody, human IgG1, kappa, V domains shown)
# VH: QIQLVQSGPELKKPGETVKISCKASGYTFTTYGMSWVKQAPGKGLKWMGWINTYSGVPTYADDFKGRFAFSLETSASNAYLQINNLKNEDTATYFCARELPFTTIIGTKDYWGQGTTLTVSS
# VL: DIVLIQSPATLSVTPGDSVSLSCRASQFISNNLHWYQQKSHESPRLLIKYASQSISGIPSRFSGGGSGTDFTLTVNSVETEDFGMYFCQQSNSWPHTFGGGTKLEIKR
# B7: C23 (antibody, human IgG1, kappa, V domains shown)
# VH: QVQLQQSGPELVKPGTSVKISCKASGYTFTDYYINWVKQRPGQGLEWIGWIFPGSGNTYYNEKFKGRATLTVDKSSSTAYMLLSSLTSEDSAVYFCARDGGLRGPFDYWGQGTTLTVSS
# VL: DIQMTQSPSSLSASLGGKVTITCKASQDINKYIAWFQHKPGKGPRLLIHFTSTLQSGIPSRFSGSGSGGDYSFSISNLEPEDIATYYCLQYDYLYTFGGGTTLEIKR
# B8: C145 (antibody, human IgG1, kappa, V domains shown)
# VH: EVQLQQSGPEVVKPGASVRISCKASGNTFTDFFINWVKQSHGKSLEWIGDVNPDSNGANYNQKFKGKATLTVDKSSGTAFMGLRSLTSEDSAVYYCATLFFDNWGQGTTLTVSS
# VL: B2 VL with S12N, T15A, R24K, T78I, I91L, T99S, R109K
# B9: C39 (antibody, human IgG1, kappa, V domains shown)
# VH: QAYLQQSGAELVRPGASVKMSCKASGYTFTSYNIHWVKQTPRQGLEWIGAIYPGNADISYNQKFRDKATLTVDKSSSTAYMQLSSLTSEDSAVYFCAKPLRIYAMDCWGQGTSVTVSS
# VL: DIVMTQSQKFMSTSVGDRVSVTCKASQNVGTNVAWYQQKPGQSPKALIYSASYRYSGVPDRFTGSGSGTDFTLTISNVQSEDLADYFCQQYNSRPLTFGGGTKLEIKR
# B10: C111 (antibody, human IgG1, kappa, V domains shown)
# VH: QVQLQQSGPELARPGASVKLSCKASGYTLTSHGISWVKQRTGQGLEWIGEIYPGSESPYYSEKFKGKATLTADKSSNIAYMQLSSLTSEDSAVYFCARSDYSDYWAMDYWGQGTSVTVSS
# VL: B3 VL with F10C, D34A, H49Y, S50L, S76T, I78V, Y96W, K103E, V106I
# B11: C113 (antibody, human IgG1, kappa, V domains shown)
# VH: EVQLQQSGPELVKPGSSVKISCKASGYTFTDYNLDWMKQSHGSSLEWIGAMSPNNGATSYNQKFKGKATLTVDKSSSTAYMELRSLTSEDSAVYYCARWDSNSWYFDVWGTGTTVTVSS
# VL: B3 VL with N28I, S31T, P40S, T46A, H49Y, N53T, S76D, I78V, D85E, V106I
# B12: C146 (antibody, human IgG1, kappa, V domains shown)
# VH: B3 VH with F27Y, A79V
# VL: B3 VL with N53S
# B13: C136 (antibody, human IgG1, kappa, V domains shown)
# VH: DVQLVESGGGLVKPGGSLKLSCAASGFSFSENYMYWVRQTPEKRLEWVATISDGASYTYYPDNVKGRFTISRDTAKNNLYLQMSHLKSEDTAMYYCTRDELIAPFAYWGQGTLVTVSA
# VL: DIVMTQSHKFMSTSVGDRVSITCKASQDVGTAVAWFQQKPGQSPKLLIYWASTRHTGVPDRFTGSGSGTDFTLTISNVQSEDLADYFCQQYNSYPWTFGGGTKLEIKR
# B14: C56-2 (antibody, human IgG1, kappa, V domains shown)
# VH: EVQLVESGGGLVKPGGSLKLSCAASGFTFSDYALSWVRQTPEKRLEWVATIRDGGSYTYYSDNEKGRFTISRDNAKNNLYLQMSHLRSEDTAMYYCTRDQVNRGWFTYWGQGTLVTVSA
# VL: QVILTQSPAIMSASLGERVTMTCSASSSVSSSYFHWFQQKPGSSPKLWIYSTSNLASGVPPRFSGSGSGTSYSLTISSMEAEDAATYYCHQHHRSPLTFGAGTKLELKR
# B15: C59 (antibody, human IgG1, kappa, V domains shown)
# VH: B14 VH with D31G, R87K
# VL: B14 VL
# B16: C22 (antibody, human IgG1, kappa, V domains shown)
# VH: EVQLQQSGPEPVKPGASVKISCKASGYTFTDYNIHWVRQSHGKSLEWIGYIYPYNGGAGYNQKFKSKATLTVDSSSSTAYMELRSLTSEDSAVYYCAREELRRDYGMDYWGQGTSVTVSS
# VL: DIQMTQSPASLSASVGETVTITCRASENIYSYLAWYQQKQGKSPQLLVYNAKTLAEGVPSRFSGSGSGTQFSLKINSLQPEDFGSYYCQHHYGTPYTFGGGTKLETKR
# Molecular target: T1, human CD112R antigen protein …
# Assay: SPR (Biacore X100), antibody captured on Protein A chip, huCD112R-His as analyte, 1:1 Langmuir
row,Kd,Binder
1,0.222 nM,B1
2,0.0769 nM,B2
3,0.0392 nM,B3

# Molecular target: T2, monkey antigen protein (monkey CD112R, …)
# Assay: ELISA, monkey antigen protein (as Example 6.1)
row,EC50,Binder
1,0.054 nM,B4
2,0.12 nM,B5
3,0.034 nM,B1
4,0.101 nM,B6
5,0.125 nM,B7
6,0.062 nM,B2
7,0.042 nM,B8
8,0.141 nM,B9
9,0.085 nM,B3
10,0.074 nM,B10
11,0.104 nM,B11
12,0.074 nM,B12
13,0.06 nM,B13
14,0.044 nM,B14
15,0.049 nM,B15
16,0.125 nM,B16

# Molecular target: T1, human CD112R antigen protein …
# Assay: ELISA, huCD112R-His coated on plate
row,EC50,Binder
1,0.049 nM,B4
2,0.038 nM,B5
3,0.029 nM,B1
4,0.219 nM,B6
5,0.06 nM,B7
6,0.035 nM,B2
7,0.038 nM,B8
8,0.691 nM,B9
9,0.043 nM,B3
10,0.036 nM,B10
11,0.038 nM,B11
12,0.036 nM,B12
13,0.039 nM,B13
14,0.032 nM,B14
15,0.044 nM,B15
16,0.029 nM,B16
